Target: GST‐LC3B (human, UniProt Q9GZQ8 1-120)
Test: AlphaScreen or HTRF

Binder: SGGDDDWTHLS [LIRtide]
- IC50: 1700 nM

From PMC10751729 (Protein Science : A Publication of the Protein Society, 2024)
